In the supplement of paper PMC12042874:
± gives the uncertainty stated by the source.

Experiment: amyloid nucleation score (Sup35N fusion, yeast selection) (log enrichment); library NNK3; higher = more nucleation; inactive = no reads after selection
How it was run: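 After 24 hours of induction with 100 μM copper sulfate, psi-negative yeast expressing peptides of 20 random codons fused to Sup35N were grown for 7 days at 30°C on medium lacking adenine and uracil. Input and output plasmid inserts were sequenced with Illumina, and sequences with under 100 input reads were discarded. Scores for nucleation are the DiMSum log enrichment of output over input reads, centred on the mode score of non-aggregating sequences.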

Question: For VMRPIPMSLYLNNFNES, which amyloid nucleation score is on record?
Answer: inactive

Question: With RRVNFVNYSLWV as the substance, how does the amyloid nucleation score read?
Answer: 1.6 ± 0.1

Question: With GALGSVMVNGRGVTSEGSPY as the substance, how does the amyloid nucleation score read?
Answer: 0.341 ± 0.39

Question: For SAYVYTD, which amyloid nucleation score is on record?
Answer: -0.156 ± 0.66

Question: With VCVKYAMTPVWSAGAARFHK as the substance, how does the amyloid nucleation score read?
Answer: inactive

Question: Which amyloid nucleation score does the source give for YDWKNL here?
Answer: inactive

Question: With HALGVSGRFDNNVVIFARGS as the substance, how does the amyloid nucleation score read?
Answer: inactive

Question: With SSSFVYFYSLVRFAPTLREY as the substance, how does the amyloid nucleation score read?
Answer: inactive

Question: Which amyloid nucleation score does the source give for LNSLLY here?
Answer: inactive

Question: With LPGINCARHK as the substance, how does the amyloid nucleation score read?
Answer: -0.918 ± 1.4

Question: For YSESIFIV, which amyloid nucleation score is on record?
Answer: inactive

Question: Which amyloid nucleation score does the source give for LVYLAF here?
Answer: inactive

Question: With VKSFVSFCSGTLSPLMFRSG as the substance, how does the amyloid nucleation score read?
Answer: 0.535 ± 0.19

Question: With KPWGPGIIGSGSRIMTDVVE as the substance, how does the amyloid nucleation score read?
Answer: inactive

Question: With NVYVSSRVYISK as the substance, how does the amyloid nucleation score read?
Answer: 2.88 ± 0.06

Question: For CYDTFGLFYCFLVWVWDLIV, which amyloid nucleation score is on record?
Answer: inactive

Question: For LIYDRHSWNHWSSQHVDRDG, which amyloid nucleation score is on record?
Answer: inactive

Question: Which amyloid nucleation score does the source give for LMNYRMGWWFVCENYNEML here?
Answer: 0.571 ± 0.17

Question: Which amyloid nucleation score does the source give for ISSNVWARDIRNWLNVTGYC here?
Answer: inactive

Question: With VLSRSKRTGISNYLCNLCEI as the substance, how does the amyloid nucleation score read?
Answer: inactive

Question: With GPSLYINLMRVGCRRGHLFL as the substance, how does the amyloid nucleation score read?
Answer: 1.46 ± 0.12

Question: With WVLDQRNSLSKCKLG as the substance, how does the amyloid nucleation score read?
Answer: inactive

Question: With PGRLSYLPHMFKYLLLITYT as the substance, how does the amyloid nucleation score read?
Answer: inactive

Question: With QARRSIYSISECGGGI as the substance, how does the amyloid nucleation score read?
Answer: 0.234 ± 0.33

Question: For TQRICRWLMVVWCDGRETHE, which amyloid nucleation score is on record?
Answer: 0.403 ± 0.35

Question: With FMSFLICNRILWSGG as the substance, how does the amyloid nucleation score read?
Answer: inactive

Question: With MMRWIDVGYLVDLYSLRISG as the substance, how does the amyloid nucleation score read?
Answer: inactive

Question: For FAYVLFATFS, which amyloid nucleation score is on record?
Answer: -0.353 ± 1.2

Question: With RKTSSY as the substance, how does the amyloid nucleation score read?
Answer: -0.725 ± 0.84

Question: With DFRHSMEASWKIWIRAGTRE as the substance, how does the amyloid nucleation score read?
Answer: inactive

Question: For GPIYWLLKGQNFESRVDTNL, which amyloid nucleation score is on record?
Answer: inactive

Question: For HLGVGG, which amyloid nucleation score is on record?
Answer: inactive

Question: Which amyloid nucleation score does the source give for IILTIGRMGLFNMAK here?
Answer: -0.152 ± 0.47

Question: Which amyloid nucleation score does the source give for CMNWCVSRMVNTIVIWCMAY here?
Answer: inactive

Question: Which amyloid nucleation score does the source give for RFIGGTYH here?
Answer: inactive

Question: With LLLTDSMSHLRFSHNSCMQQ as the substance, how does the amyloid nucleation score read?
Answer: 0.868 ± 0.17

Question: For VQSFGPNFD, which amyloid nucleation score is on record?
Answer: inactive

Question: Which amyloid nucleation score does the source give for YDSLFCLSSHLGWCNRALPE here?
Answer: 0.977 ± 0.13

Question: Which amyloid nucleation score does the source give for KCTFFDTCVTQTCLFNMFGC here?
Answer: 2.34 ± 0.063

Question: For VISLRLVLNWNVTGVSLLGW, which amyloid nucleation score is on record?
Answer: 0.611 ± 0.16

Question: For FNHPNQGVCIHCISGKGWTR, which amyloid nucleation score is on record?
Answer: inactive

Question: Which amyloid nucleation score does the source give for RVKYL here?
Answer: inactive

Question: For LIQPFFWCHCHDLAVDESGE, which amyloid nucleation score is on record?
Answer: 1.66 ± 0.11

Question: Which amyloid nucleation score does the source give for ALMMRLFFRIRSTMCCWVCS here?
Answer: inactive

Question: Which amyloid nucleation score does the source give for PTPMNKKRHYHVDVASPFSL here?
Answer: inactive

Question: With TRFTACGYRKSCYWWIVF as the substance, how does the amyloid nucleation score read?
Answer: inactive

Question: Which amyloid nucleation score does the source give for FRYVREAGIGIVG here?
Answer: inactive

Question: For PCPLRTTVW, which amyloid nucleation score is on record?
Answer: inactive

Question: With YLLLARIEKRFGFFVISDPG as the substance, how does the amyloid nucleation score read?
Answer: inactive

Question: Which amyloid nucleation score does the source give for MIIRGKPVIWMECLAVRTDR here?
Answer: inactive

Question: Which amyloid nucleation score does the source give for LLTSLDPDYSSPWCYSVDIC here?
Answer: inactive

Question: Which amyloid nucleation score does the source give for YVIVYS here?
Answer: inactive

Question: With LYIWSIGLLEQLGNGMQASR as the substance, how does the amyloid nucleation score read?
Answer: inactive

Question: For RVNNGT, which amyloid nucleation score is on record?
Answer: inactive

Question: Which amyloid nucleation score does the source give for MDSCFRYVTYVTVLGLK here?
Answer: inactive

Question: Which amyloid nucleation score does the source give for RYIFNQANSMVQYRFVYDVR here?
Answer: 1.72 ± 0.069

Question: For TNDAGHVWYSLCLRIFNTNV, which amyloid nucleation score is on record?
Answer: inactive

Question: With VLDVVY as the substance, how does the amyloid nucleation score read?
Answer: inactive

Question: Which amyloid nucleation score does the source give for SFAKHHDMK here?
Answer: inactive

Question: With ILLCRKYWFFRFTMVV as the substance, how does the amyloid nucleation score read?
Answer: inactive

Question: With QITRLPSNYVYETWSEKVFY as the substance, how does the amyloid nucleation score read?
Answer: inactive

Question: For LGGLCPCF, which amyloid nucleation score is on record?
Answer: inactive

Question: With CFLYLLLQTN as the substance, how does the amyloid nucleation score read?
Answer: inactive

Question: With VVTASYWLLCLSLYFSAS as the substance, how does the amyloid nucleation score read?
Answer: inactive

Question: For NSYMHGQDF, which amyloid nucleation score is on record?
Answer: inactive

Question: Which amyloid nucleation score does the source give for MCKRGRDCGLLFVSTDDLGD here?
Answer: inactive

Question: Which amyloid nucleation score does the source give for SYVVRLMSLVAWN here?
Answer: inactive
